Reference: US20220356470

Assays:
[1] = test system: Type I-C Cascade with Cas3-Cas8 tether (Pseudomonas aeruginosa); assay: cell_activity; settings: smaller deletions than untethered; PAM not stated
[2] = test system: Type I-C Cascade-Cas3 D370A (helicase mutant) Cas3 D370A (Pseudomonas aeruginosa); assay: cell_activity; settings: smaller deletions; PAM not stated

Work on “crRNA targeting 200 bp upstream of phzM ; site 200 bp upstream of phzM” yielded an activity (% survivors with deletion (17/20)) [1] of 85 and an activity (% survivors edited) [2] of 25.
